Test results reported in patent US7192735.

Biological target: EntF (E. coli enterobactin synthetase component), apo form, P11454
Sequence (P11454 whole entry): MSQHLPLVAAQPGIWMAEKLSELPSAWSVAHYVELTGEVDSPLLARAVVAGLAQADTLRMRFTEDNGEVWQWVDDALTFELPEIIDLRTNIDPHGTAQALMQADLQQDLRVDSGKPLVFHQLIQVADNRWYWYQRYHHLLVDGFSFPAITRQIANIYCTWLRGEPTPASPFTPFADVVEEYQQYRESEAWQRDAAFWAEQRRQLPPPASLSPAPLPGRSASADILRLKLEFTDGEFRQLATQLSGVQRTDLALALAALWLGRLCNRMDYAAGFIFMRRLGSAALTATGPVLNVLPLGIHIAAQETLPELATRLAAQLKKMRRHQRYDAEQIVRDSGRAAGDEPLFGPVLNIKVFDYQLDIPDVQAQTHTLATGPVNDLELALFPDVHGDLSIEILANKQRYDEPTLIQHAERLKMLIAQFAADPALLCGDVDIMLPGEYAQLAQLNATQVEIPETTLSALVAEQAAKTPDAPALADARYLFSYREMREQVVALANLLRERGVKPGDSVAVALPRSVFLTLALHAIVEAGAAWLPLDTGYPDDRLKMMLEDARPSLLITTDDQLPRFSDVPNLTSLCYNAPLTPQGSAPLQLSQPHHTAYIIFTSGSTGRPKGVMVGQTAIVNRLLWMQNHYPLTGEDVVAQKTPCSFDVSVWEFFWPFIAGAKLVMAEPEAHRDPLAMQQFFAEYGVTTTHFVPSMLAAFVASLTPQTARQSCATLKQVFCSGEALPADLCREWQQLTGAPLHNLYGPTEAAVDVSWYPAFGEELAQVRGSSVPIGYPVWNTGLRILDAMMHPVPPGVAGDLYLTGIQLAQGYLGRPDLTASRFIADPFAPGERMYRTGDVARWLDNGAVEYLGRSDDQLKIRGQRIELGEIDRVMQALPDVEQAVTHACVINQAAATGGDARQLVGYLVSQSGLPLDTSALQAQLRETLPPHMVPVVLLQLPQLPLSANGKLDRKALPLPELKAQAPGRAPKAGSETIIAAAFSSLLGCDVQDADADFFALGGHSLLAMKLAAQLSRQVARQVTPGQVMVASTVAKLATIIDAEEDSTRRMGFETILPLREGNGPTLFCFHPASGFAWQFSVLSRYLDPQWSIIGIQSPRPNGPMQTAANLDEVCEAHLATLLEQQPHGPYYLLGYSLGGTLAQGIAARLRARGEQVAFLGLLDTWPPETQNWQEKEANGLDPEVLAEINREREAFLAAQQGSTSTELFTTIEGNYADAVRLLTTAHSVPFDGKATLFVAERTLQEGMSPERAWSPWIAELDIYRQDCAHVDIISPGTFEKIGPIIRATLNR

B1: o195 (E. coli ORF of unknown function), recombinant from pET28b-o195 (protein)
chain: MYRIVLGKVSTLSAAPLPPGLREQAPQGPRRERWLAGRALLSHTLSPLPEIIYGEQGKPAFAPEMPLWFNLSHSGDDIALLLSDEGEVGCDIEVIRPRANWRWLANAVFSLGEHAEMDAVHPDQQLEMFWRIWTRKEAIVKQRGGSAWQIVSVDSTYHSSLSVSHCQLENLSLAICTPTPFTLTADSVQWIDSVN
  time course of incorporation of radiolabel into EntF: EntF undergoes almost no modification in the presence of 15-fold higher concentrations of ACPS and o195
